Experimental data reported in patent KR20230078152A.

Target: human PSMA (prostate-specific membrane antigen) expressed on LNCaP cells (human) (UniProt Q04609)
Assay: flow cytometry on LNCaP cells, isotype control 10μg/mL, 4℃

Sequence of human PSMA (prostate-specific membrane antigen) expressed on LNCaP cells (human) (Q04609 whole entry): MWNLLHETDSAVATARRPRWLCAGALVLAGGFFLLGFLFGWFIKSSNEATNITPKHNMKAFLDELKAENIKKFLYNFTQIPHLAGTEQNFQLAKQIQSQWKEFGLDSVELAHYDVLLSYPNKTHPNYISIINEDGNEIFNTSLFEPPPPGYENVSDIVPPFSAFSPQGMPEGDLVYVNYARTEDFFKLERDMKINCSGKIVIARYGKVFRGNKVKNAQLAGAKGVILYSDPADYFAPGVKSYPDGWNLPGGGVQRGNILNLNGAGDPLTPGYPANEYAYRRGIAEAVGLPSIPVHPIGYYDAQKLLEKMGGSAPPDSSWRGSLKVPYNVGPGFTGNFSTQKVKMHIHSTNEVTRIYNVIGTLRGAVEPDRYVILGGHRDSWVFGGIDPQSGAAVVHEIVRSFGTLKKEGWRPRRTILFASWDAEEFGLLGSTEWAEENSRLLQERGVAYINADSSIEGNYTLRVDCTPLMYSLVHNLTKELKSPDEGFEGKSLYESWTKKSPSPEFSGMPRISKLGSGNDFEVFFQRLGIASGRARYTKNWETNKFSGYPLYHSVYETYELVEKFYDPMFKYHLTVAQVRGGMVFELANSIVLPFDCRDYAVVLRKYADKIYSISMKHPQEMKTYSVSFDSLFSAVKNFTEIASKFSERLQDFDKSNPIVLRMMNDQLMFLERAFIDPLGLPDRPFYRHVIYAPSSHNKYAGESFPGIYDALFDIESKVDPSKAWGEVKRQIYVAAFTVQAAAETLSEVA

Mean FL: 3440 Mean FL
Substance: Mouse IgG Isotype Control (ThermoFisher, cat.No.02-6502) (antibody)
